This is an account of results in the nanobody polyreactivity screen of Harvey et al. (2022).

The data set can be described thus: yeast display, Sf9 membrane polyspecificity reagent, FACS + sequencing; frameworks hold sequencing errors. The gist of the method:
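Synthetic nanobody libraries on Saccharomyces cerevisiae BJ5465 were galactose-induced for 36–48 hours, stained 1 hour at 4 °C with 10% biotinylated, detergent-solubilized Sf9 membrane reagent and enriched on streptavidin microbeads. FACS then separated cells into low and high (top ~1%) gates by anti-HA (expression) and streptavidin (reagent binding) fluorescence. Genes were colony-PCR amplified, MiSeq 2 × 250 sequenced and CDR-length filtered. A clone's polyreactivity label is that of its gate of origin.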
In the case of “QVQLVESGGGLVQAGGSLRLSCAASGRIFRGYVMGWYRQAPGKERELVAVITSGGRTYYADSVKGRFTISRDNAKNTVYLQMNSHKPEDTAVYYCATYPRYKPYYYWGQGTQVTVSS”, the “polyreactivity (PSR sort gate)” value is “low polyreactivity”.
Turning to “QVQLVESGGGLVQAGGSLRLSCAASGRIFRHNTMGWYLQAPGKERELVAAIRYSGGRTYYADSVKGRFTLSRDTAKNTFYLQMNSLKPEDTAVYYCAATYFAAVYSSWYWFDYWGQGTQVTVSS”, the “polyreactivity (PSR sort gate)” value was “high polyreactivity”.
As for “QVQLVESGGGLVQAGGSLRLSCAASGRIFRHNTMGWYRQAPGNESELVAGITASGGDTYYADSVTGRFTISRDNAKNTVYLQMNSLNPEDTAVYDCATSQYGYRSWPGLYYWGQGTQVTVSS”, the entry is “low polyreactivity”; as for “QVQLVESGGGLVQAGGSLRLSCAASGRIFRINAMGWYRQAPGKERELVATISSGGGSTYADSVKGRFTISRDNAKTTVYLQMNSLKPEDTAVYYCAARSRIGRYTYDYWGQGTQVTVSS”, “high polyreactivity”.
Consider “QVQLVESGGGLVQAGGSLRLSCAASGRIFRINAMGWYRQAPGKERELVATITSGGRTKYADSVKGRFTISRDNAKNTVYLQMNSLKPEDTAVYYCAADWRVRVRQHIPDKYDYWGQGTQVTVSS”, for which the “polyreactivity (PSR sort gate)” value is recorded as “low polyreactivity”.
As to “QVQLVESGGGLVQAGGSLRLSCAASGRIFRINGMGWYRQAPGKEREFVAAITSGGGTYYADSVKGRFTISRDNAKNTVYLQMNSLKPEDTAVYYCAVRRRYGDDYWGQGTQVTVSS”, the “polyreactivity (PSR sort gate)” value was “high polyreactivity”.
“QVQLVESGGGLVQAGGSLRLSCAASGRIFRKNARGWYRQAPGKEREFVAAIRLSGGRTFYADSVKGRFTISRDNAKNTVYLQMNSLKPEDTAVYYCAAETVNGKHDYWGQGTQVTVSS”: the “polyreactivity (PSR sort gate)” value is recorded as “high polyreactivity”.
For the sequence “QVQLVESGGGLVQAGGSLRLSCAASGRIFRKNVMGWYRQAPGKERELVAAIRWSGGGTYYADSVKGRFTISRDNAKNTVYLQMNSLKPEDTAVYYCAAVPTSSAYDYWGQGTQVTVSS”, the “polyreactivity (PSR sort gate)” value is on record as “high polyreactivity”.
Regarding “QVQLVESGGGLVQAGGSLRLSCAASGRIFRLYAMGWYRQAPGKERELGAAISSRGGDTYADSVKGRFTISRDNAKNTVYLQMNSLKPEDTAVYYCNDVIYYPYKSGVWYYEYDYWGQGTKVTVSS”, the “polyreactivity (PSR sort gate)” value is “low polyreactivity”.
“QVQLVESGGGLVQAGGSLRLSCAASGRIFRLYAMGWYRQSPGKERELVATITSGGTYYADSVKGRFTISRDNAKNTVYLQMNSLKPEDTAVYYCTARRRLRYDYWGQGTQVTVSS”: the “polyreactivity (PSR sort gate)” value is “low polyreactivity”.
For “QVQLVESGGGLVQAGGSLRLSCAASGRIFRPNAMGWNRQAPGKVRELVAAISSGGSTYYADSVKGRFTISRDNAKNTVYLQMNSLKPEDTAVYYCAARSRGYDIRYGYWGQGTQVTVSS”, the “polyreactivity (PSR sort gate)” value was “high polyreactivity”.
With “QVQLVESGGGLVQAGGSLRLSCAASGRIFRPYAMGWYRLAPGKERELVAAISWSGDDTYYADSVKGRFTISRDNAKNTVYLQMNSLKPEDTAVYYCAAEVYAAAYDYWGQGTQVTVSS” the entry was “low polyreactivity”; with “QVQLVESGGGLVQAGGSLRLSCAASGRIFRPYAMGWYRQAPGKERELVAAITQSGGITSYADSVKGRFTISRDNAKNSVYLQMNSLKPEDTAVYYCATTSRYTRSHYDWYDYWGQGTQVTVSS”, “low polyreactivity”; with “QVQLVESGGGLVQAGGSLRLSCAASGRIFRPYTMGWYRQAPGKERELVAAITSGSSTNYADSVKGRFTISRDNAKNTVYLHMNSLKPEDTAVYYCAVKVRIFASYYPFYYWGQGSQVTVSS”, “high polyreactivity”.
With “QVQLVESGGGLVQAGGSLRLSCAASGRIFRQNAMGWYRQAPGKERELVAAISRSGGSTYYADSVKGRFTISRDNAKNTVYLQMNSLNPEDTAVYYCNRDYQSQRTYPRRYDYWGQGTQVTVSS”, the “polyreactivity (PSR sort gate)” value is reported as “low polyreactivity”.
In the case of “QVQLVESGGGLVQAGGSLRLSCAASGRIFRQYAMGWYRQAPGKERELVAAITSGGSTNYADSVKGRFTISRDNAKNTVYLQMNSLKPEDTAVYYCNAAGGTRSGVQYDYWGQGTQVTVSS”, the “polyreactivity (PSR sort gate)” value is listed as “low polyreactivity”.
As for “QVQLVESGGGLVQAGGSLRLSCAASGRIFRQYAMGWYRQAPGKERELVAAITSGGSTNYADSVKGRFTISRDNAKNTVYLQMNSLKPEDTAVYYCNARWPYAYQDGYWGQGTQVTVSS”, the “polyreactivity (PSR sort gate)” value is listed as “low polyreactivity”.
As for “QVQLVESGGGLVQAGGSLRLSCAASGRIFRRNAMGWYRQAPGKERELVAAITSNGGRTYYADSVKGRFTISRDNAKNTVYLQMNSLKPEDTAVYYCAADTYDNDYYYWGQGTQVTVSS”, the entry is “high polyreactivity”; as for “QVQLVESGGGLVQAGGSLRLSCAASGRIFRRNTMGWYRQAPGKERELVAAITSSGGSTYADSVKGRFTISRDNAKNTVYLQMKSLKPEDTAVYYCATYVAYHRGYRTYDHWGQGTQVTVSS”, “low polyreactivity”; as for “QVQLVESGGGLVQAGGSLRLSCAASGRIFRRNTMGWYRQAPGKERELVAAITSSGGSTYADSVKGRFTISRDNAKNTVYLQMNSLTPEDTAVYYCATYVAYHRGYRTYDHWGQGTHVTVSS”, “low polyreactivity”.
With “QVQLVESGGGLVQAGGSLRLSCAASGRIFRRNTMGWYRQAPGKERELVATISKNGGSTYYADSVKGRFTISRDNAKNTVYLQMNSLKPADTAVYYCNAPDPSSTSYFPYELGYWGQGTQVTVSS”, the “polyreactivity (PSR sort gate)” value is reported as “high polyreactivity”.
As to “QVQLVESGGGLVQAGGSLRLSCAASGRIFRRYAMGWYRQAPAKERELVAAITTSGGSTYYADSVKGRFTISRDNAKNTVYLQMNSQNPADTAVYYCNTVSPYKYDWGLGTQVTVSS”, the “polyreactivity (PSR sort gate)” value is on record as “high polyreactivity”.
With “QVQLVESGGGLVQAGGSLRLSCAASGRIFRRYAMGWYRQAPGKEREFVAAITKSGGSTYYADSVKGRFTISRDNAKNTVYLQMNSLKPEDTAVYYCATYPQYYFGYDYWGQGTQVTVSS”, the “polyreactivity (PSR sort gate)” value is listed as “high polyreactivity”.
As for “QVQLVESGGGLVQAGGSLRLSCAASGRIFRRYAMGWYRQAPGKERELVAAISWSGGATYYADSVKGRFTISRDNAKNTVYLQMNSLKPEDTAVYYCAALRYQQCRAYDYWGQGTLVTVSS”, the entry is “high polyreactivity”; as for “QVQLVESGGGLVQAGGSLRLSCAASGRIFRRYTMGWSRQAPGKERELVAAISSGGSTNYADSVKGRFTISRDNANNTVYLQMNSLKPEDTAVYYCAARFASRQHTIYYYWGQGTQVTVSS”, “high polyreactivity”.
On to “QVQLVESGGGLVQAGGSLRLSCAASGRIFRRYTMGWYRQAPGKERELVAAITWNGGRTYYADSVKGRFTISRDNAKNTVYLQMNSLKPEDTAVYYCAARRQGGYGYDYWGQGTQVTVSS”, for which the “polyreactivity (PSR sort gate)” value is given as “high polyreactivity”.
As for “QVQLVESGGGLVQAGGSLRLSCAASGRIFRRYVMVWSRQAPGKERELVARIRIRDSNTYYADSVKGRFTISRDNAKNTVYLQMNSLKPEDTAVYYCAVVANYVYSKYDYWGQGTLVTVSS”, the “polyreactivity (PSR sort gate)” value is “high polyreactivity”.
For the sequence “QVQLVESGGGLVQAGGSLRLSCAASGRIFRSNAMGWYRQAPGKERELVAAINYRGDRTYYADSVKGRFTISRDNAKNTVYLQMYSLKPEDTAVYYCNARRYSIPVSAGGYDSWGQGTQVTVSS”, the “polyreactivity (PSR sort gate)” value is “high polyreactivity”.
Regarding “QVQLVESGGGLVQAGGSLRLSCAASGRIFRSNAMGWYRQAPGKERELVATISRRGGSTYYADSVKGRFTISRDNAKNTVYLQMNSLKPEDTAVYFCNTRNSGSLDLYNTMDYWGQGTQVTVSS”, the “polyreactivity (PSR sort gate)” value is “high polyreactivity”.
On to “QVQLVESGGGLVQAGGSLRLSCAASGRIFRSYAMGWYRQAPGKERELVAAITKSGGGTYYADTVKGRFTISRDNAKNTVYLQMNSMKPEDTAVYYCGARGHCGYYYWGQGTQVTVSS”, for which the “polyreactivity (PSR sort gate)” value is “high polyreactivity”.
